Publication PMC11947611, “Functional and structural characterization of Staphylococcus aureus N‐acetylglucosamine 1‐phosphate uridyltransferase (GlmU) reveals a redox‐sensitive acetyltransferase activity” (Protein Science : A Publication of the Protein Society, 2025)

Biological target: the molecule itself
Experiment: crystal structure; cocrystals of WT SaGlmU with AcCoA and citrate (PDB 9DQF) and with UTP, CoA and Glc 1-P (PDB 9DR4); reducing conditions, 0.5 mM DTT; 200 mM lithium citrate tribasic tetrahydrate, 15-20% PEG 3350; one monomer in the asymmetric unit, trimer assembly

B1: Staphylococcus aureus N-acetylglucosamine 1-phosphate uridyltransferase (GlmU), wild type (enzyme, Staphylococcus aureus NCTC 8325)
chain: MRRHAIILAAGKGTRMKSKKYKVLHEVAGKPMVEHVLESVKGSGVDQVVTIVGHGAESVKGHLGERSLYSFQEEQLGTAHAVQMAKSHLEDKEGTTIVVCGDTPLITKETLVTLIAHHEDANAQATVLSASIQQPYGYGRIVRNASGRLERIVEEKDATQAEKDINEISSGIFAFNNKTLFEKLTQVKNDNAQGEYYLPDVLSLILNDGGIVEVYRTNDVEEIMGVNDRVMLSQAEKAMQRRTNHYHMLNGVTIIDPDSTYIGPDVTIGSDTVIEPGVRINGRTEIGEDVVIGQYSEINNSTIENGACIQQSVVNDASVGANTKVGPFAQLRPGAQLGADVKVGNFVEIKKADLKDGAKVSHLSYIGDAVIGERTNIGCGTITVNYDGENKFKTIVGKDSFVGCNVNLVAPVTIGDDVLVAAGSTITDDVPNDSLAVARARQTTKEGYRK
notes: GlmU of Staphylococcus aureus NCTC 8325; the glmU gene was amplified by PCR from genomic DNA; the domains described in the structure span Res. 1-228 (uridyltransferase), 229-251 (linker) and 252-450 (acetyltransferase); Plasmid 6xHis-SaGlmU-pET-16b (NcoI/BamHI); No removal of the tag is described; By intact mass the N-terminal methionine is removed; also called SaGlmU; WT SaGlmU
  stoichiometry N: 3
